In patent publication US20070185028A1, “Compositions and methods for treatment of protein misfolding and protein aggregation diseases” (priority 2004, published 2007) one finds Δfluorescence (γD crystallin), Thioflavin T, 72 h and Δfluorescence (Aβ), Thioflavin T, 72 h data, which are given here for one substance.

In test [1] the target is Human γD crystallin (human) (UniProt P07320). The test can be described thus: cell-based or functional assay.
Another test concerns the target beta amyloid (UniProt P05067). The test can be described thus: cell-based or functional assay.

Human γD crystallin (human), sequence (P07320 2-174 limits assumed): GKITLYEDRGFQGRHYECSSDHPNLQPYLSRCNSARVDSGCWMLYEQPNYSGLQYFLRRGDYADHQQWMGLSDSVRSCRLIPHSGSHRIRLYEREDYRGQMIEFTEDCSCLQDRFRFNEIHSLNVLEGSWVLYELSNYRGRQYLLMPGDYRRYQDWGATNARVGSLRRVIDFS

“human αB crystallin (from UniProt P02511 1-175)” registered a Δfluorescence (γD crystallin), Thioflavin T, 72 h at 50° C (no chaperone: 888,803,840) in test [1] of 1.08e+09. This substance also displayed a Δfluorescence (Aβ), Thioflavin T, 72 h at 50° C (no chaperone: 1,324,974,048) with beta amyloid of 3.18e+08.
